Laboratory results published in patent CN106892979A.

Assays:
Test in all cases: cell-based or functional assay
[1] = biological target: H7N9病毒Nanjing-06病毒株 (H7N9病毒)
[2] = biological target: H7N9病毒Suzhou-03病毒株 (H7N9病毒)
[3] = biological target: H7N9病毒Wuxi-02病毒株 (H7N9病毒)
[4] = biological target: H7N9病毒Wuxi-01病毒株 (H7N9病毒)

B1: 全人源抗H7N9病毒的单克隆中和抗体mAb635 (antibody, V domains shown)
VH: TGVHSQVQLVQSGAEVKKPGASVKISCKASGYSFTNYTLHWVRQAPGQRLEWMGWINAGNGNTRYSQKFQARVTITRDTSASTGYMEVSSLRSEDTAVYYCARGAYYGFWNGHYMGDDDNYYYGMGVWGQGPRSPSPQRR
VL: TGSLSQPVLTQPPSVSVSPGQTASITCSGDKLGDKYACWYQQKPGQSPVQVIYQDTKRPSGIPERFSGSNSGDTATLTISGTQSVDEADYYCQAWDSSRDVVFGGGTKLTVLGQPKAAPSVTLFPTLE
- 中和100×TCID50病毒需要的抗体量 [1]: 80 ng
- 中和100×TCID50病毒需要的抗体量 [2]: 80 ng
- 中和100×TCID50病毒需要的抗体量 [3]: 320 ng
- 中和100×TCID50病毒需要的抗体量 [4]: 160 ng
